How the values were obtained:
[1] = Preliminary stability of PDGF preformulations in the gel vehicle (SEC, rpHPLC); assay type: physicochemical; settings: mixed into gel vehicle PLGA RG502/BB/BA 40/45/15, stored at 5° C. for 1 day
Description: All lyophilized protein formulations as listed in Tables 8 and 9, were mixed into a gel vehicle with the composition of PLGA RG502/Benzyl Benzoate (BB)/benzyl alcohol (BA) of 40/45/15 with the loading of the protein formulation about 10 wt %. After being stored at 5° C. for 1 day, the mixtures were extracted with an organic solvent mixture of methylene chloride and acetone (ratio of 50/50) as described in the example 15 above. The purity of the PDGF-BB was analyzed by both reverse phase HPLC (rpHPLC) and size exclusion chromatography (SEC). In general, no distinguishable degradation of the PDGF-BB was found in the PDGF-BB formulation incorporated with the excipients as described in the example 18 and mixed with the gel vehicle of the present invention.

[2] = Stability of PDGF in the depot formulations (rpHPLC, SEC); assay type: physicochemical; settings: day 0
Description: Depot gel PDGF formulations were stored for different periods of time at 5, 25 and 40° C., respectively. At predetermined time points, the depot gel PDGF-BB formulation (0.3 ml) was treated with a cooled organic solvent (a 50/50 mixture of methylene chloride/acetone, at 5° C., 3×3.0 ml). The resulting residual PDGF-BB was dissolved in a PBS buffer (2 ml, pH 7.4) and the purity of the PDGF was analyzed by both reverse phase HPLC (rpHPLC) and size exclusion chromatography (SEC) HPLC. FIGS. 18-20 illustrate the stability of PDGF (% monomer by SEC) in the various depot formulations, including those of the present invention, as a function of time at 5° C. (FIG. 18), 25° C. (FIG. 19) and 40° C. (FIG. 20), respectively. Table 12 summarizes the chemical stability of PDGF tested by rpHPLC in the various depot formulations, including those of the present invention, as a function of time at 5° C., 25° C. and 40° C., respectively. […] Sucrose has a significant stabilizing effect on the various depot formulations of the present invention.

Bulk PDGF: PDGF-BB bulk solution, i.e., aqueous solution of PDGF in acetate buffer
% PDGF dimer by SEC [1]: 0.73% | % PDGF monomer by SEC [1]: 99.27% | % other peaks by rp-HPLC [1]: 0.0% | % peak at RRT = 0.93 by rp-HPLC [1]: 11.1% | % peak at RRT = 1.00 by rp-HPLC [1]: 87.7% | % peak at RRT = 1.10 by rp-HPLC [1]: 1.2% | RP-HPLC Other Peak(s) [2]: 0 % Peak Area | RP-HPLC Peak at (RRT = 0.93) [2]: 11.1 % Peak Area | RP-HPLC Peak at (RRT = 1.00) [2]: 87.7 % Peak Area | RP-HPLC Peak at (RRT = 1.09) [2]: 1.2 % Peak Area
